The text below walks through data of publication PMC4325325.

This data set concerns RcsB. The experiment in a line: EMSA.

Where only a bound is given, the exact number is not on record here.

As for “hmsC (hmsCDE/hmsD) promoter, wild-type RcsAAB box”, the K half came out at 800 ng per 16 µL.
With lcrQ promoter the figure was above 2000 ng per 16 µL.
